Results reported in paper PMC12594171, “DKK3-LRP1 complex and a chemical inhibitor regulate Aβ clearance in models of Alzheimer’s disease” (Science Advances, 2025).

Assays:
[1] = molecular target: T1, DKK1-AP (UniProt O94907 32-266); assay: SPR; Biacore T200; purified mLRPIV-6×His (15 μM) amine-coupled to a CM5 chip; DKK1 or DKK3 at 6.25 to 200 nM; conditions: both partners purified
T1 construct: DKK1 cDNA cloned into the pAPtag-5 vector (GenHunter, QV5); also called DKK1 tagged with alkaline phosphatase (AP) and 6 × His; source: HEK293, transfected, conditioned medium; purified with Ni-NTA Agarose beads; not shown: alkaline phosphatase (AP), C-terminal, kept
T1 sequence (looked up): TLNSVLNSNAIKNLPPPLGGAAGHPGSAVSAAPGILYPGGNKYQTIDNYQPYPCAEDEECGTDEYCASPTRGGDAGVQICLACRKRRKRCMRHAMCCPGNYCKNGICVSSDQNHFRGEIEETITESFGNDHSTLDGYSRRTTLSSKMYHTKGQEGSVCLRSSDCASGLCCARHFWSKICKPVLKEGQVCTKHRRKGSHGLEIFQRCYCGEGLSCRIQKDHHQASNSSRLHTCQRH

[2] = molecular target: T2, DKK3-AP (UniProt Q9UBP4 22-350); assay: as above; conditions: both partners purified
T2 construct: DKK3 cDNA cloned into the pAPtag-5 vector (GenHunter, QV5); also called DKK3 tagged with alkaline phosphatase (AP) and 6 × His; source: HEK293, transfected, conditioned medium; purified with Ni-NTA Agarose beads; not shown: alkaline phosphatase (AP), C-terminal, kept
T2 sequence (Q9UBP4 22-350): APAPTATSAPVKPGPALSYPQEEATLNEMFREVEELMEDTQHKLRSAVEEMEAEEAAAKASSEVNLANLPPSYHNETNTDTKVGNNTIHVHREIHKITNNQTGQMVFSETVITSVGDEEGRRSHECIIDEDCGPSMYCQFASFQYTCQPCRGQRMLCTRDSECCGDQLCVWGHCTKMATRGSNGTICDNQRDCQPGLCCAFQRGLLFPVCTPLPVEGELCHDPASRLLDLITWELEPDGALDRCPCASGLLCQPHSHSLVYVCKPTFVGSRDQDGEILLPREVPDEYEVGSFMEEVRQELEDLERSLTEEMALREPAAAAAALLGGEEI

- Kd [1]: 82.3 nM
- Kd [2]: 35.5 nM
B1: mLRPIV-6 × His, prokaryotically expressed (domain or fragment)
chain: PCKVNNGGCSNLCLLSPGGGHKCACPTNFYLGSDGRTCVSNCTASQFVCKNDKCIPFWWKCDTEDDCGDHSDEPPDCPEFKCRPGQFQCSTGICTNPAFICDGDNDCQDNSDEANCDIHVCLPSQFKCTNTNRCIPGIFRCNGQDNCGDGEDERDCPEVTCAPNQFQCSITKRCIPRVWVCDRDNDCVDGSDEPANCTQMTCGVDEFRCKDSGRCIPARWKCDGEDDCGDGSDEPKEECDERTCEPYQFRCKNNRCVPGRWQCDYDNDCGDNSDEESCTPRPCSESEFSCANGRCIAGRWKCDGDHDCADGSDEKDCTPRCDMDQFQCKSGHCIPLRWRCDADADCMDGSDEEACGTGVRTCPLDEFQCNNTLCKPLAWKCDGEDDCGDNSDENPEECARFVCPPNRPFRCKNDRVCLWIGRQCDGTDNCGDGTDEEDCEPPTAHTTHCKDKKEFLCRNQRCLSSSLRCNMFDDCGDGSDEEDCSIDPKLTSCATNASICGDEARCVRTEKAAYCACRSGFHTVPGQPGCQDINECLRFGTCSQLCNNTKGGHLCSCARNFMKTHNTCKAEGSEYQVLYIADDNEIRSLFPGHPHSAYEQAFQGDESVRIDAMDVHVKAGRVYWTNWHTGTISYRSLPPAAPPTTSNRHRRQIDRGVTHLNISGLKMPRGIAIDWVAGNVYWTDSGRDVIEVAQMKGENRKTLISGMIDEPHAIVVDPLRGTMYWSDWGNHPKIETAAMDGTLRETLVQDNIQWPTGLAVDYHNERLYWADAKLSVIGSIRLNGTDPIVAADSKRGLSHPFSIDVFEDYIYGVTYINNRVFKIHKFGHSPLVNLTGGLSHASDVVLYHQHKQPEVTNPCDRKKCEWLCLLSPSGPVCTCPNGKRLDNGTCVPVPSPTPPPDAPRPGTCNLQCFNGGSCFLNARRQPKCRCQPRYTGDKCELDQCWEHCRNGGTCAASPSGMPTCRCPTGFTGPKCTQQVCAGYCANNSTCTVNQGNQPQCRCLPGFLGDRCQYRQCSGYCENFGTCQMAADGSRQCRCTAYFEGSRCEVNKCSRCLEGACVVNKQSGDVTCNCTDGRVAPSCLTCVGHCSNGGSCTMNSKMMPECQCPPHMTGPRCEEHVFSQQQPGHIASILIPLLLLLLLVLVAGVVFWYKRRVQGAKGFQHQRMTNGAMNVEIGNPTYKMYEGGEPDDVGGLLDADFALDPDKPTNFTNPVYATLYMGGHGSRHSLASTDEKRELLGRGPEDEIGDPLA
